Measurements published in article PMC6201732 (Protein Science : A Publication of the Protein Society, 2018).

B1: Chlamydia muridarum native major outer membrane protein (nMOMP), from adherent HeLa 229 cells (natural protein)
chain: LPVGNPAEPSLMIDGILWEGFGGDPCDPCTTWCDAISLRLGYYGDFVFDRVLKTDVNKQFEMGAAPTGDADLTTAPTPASRENPAYGKHMQDAEMFTNAAYMALNIWDRFDVFCTLGATSGYLKGNSAAFNLVGLFGRDETAVAADDIPNVSLSQAVVELYTDTAFAWSVGARAALWECGCATLGASFQYAQSKPKVEELNVLCNAAEFTINKPKGYVGQEFPLNIKAGTVSATDTKDASIDYHEWQASLALSYRLNMFTPYIGVKWSRASFDADTIRIAQPKLETSILKMTTWNPTISGSGIDVDTKITDTLQIVSLQLNKMKSRKSCGLAIGTTIVDADKYAVTVETRLIDERAAHVNAQFRF
B2: Chlamydia trachomatis Serovar E native major outer membrane protein (nMOMP), from adherent HeLa 229 cells (natural protein)
chain: LPVGNPAEPSLMIDGILWEGFGGDPCDPCTTWCDAISMRMGYYGDFVFDRVLKTDVNKEFQMGDKPTSTTGNATAPTTLTARENPAYGRHMQDAEMFTNAACMALNIWDRFDVFCTLGASSGYLKGNSASFNLVGLFGDNENQSTVKTNSVPNMSLDQSVVELYTDTAFSWSVGARAALWECGCATLGASFQYAQSKPKVEELNVLCNAAEFTINKPKGYVGQEFPLALIAGTDAATGTKDASIDYHEWQASLALSYRLNMFTPYIGVKWSRASFDADTIRIAQPKSATAIFDTTTLNPTIAGAGDVKASAEGQLGDTMQIVSLQLNKMKSRKSCGIAVGTTIVDADKYAVTVETRLIDERAAHVNAQFRF
B3: Chlamydia trachomatis Serovar E native major outer membrane protein (nMOMP), from HeLa suspension cells (natural protein)
chain: LPVGNPAEPSLMIDGILWEGFGGDPCDPCTTWCDAISMRMGYYGDFVFDRVLKTDVNKEFQMGDKPTSTTGNATAPTTLTARENPAYGRHMQDAEMFTNAACMALNIWDRFDVFCTLGASSGYLKGNSASFNLVGLFGDNENQSTVKTNSVPNMSLDQSVVELYTDTAFSWSVGARAALWECGCATLGASFQYAQSKPKVEELNVLCNAAEFTINKPKGYVGQEFPLALIAGTDAATGTKDASIDYHEWQASLALSYRLNMFTPYIGVKWSRASFDADTIRIAQPKSATAIFDTTTLNPTIAGAGDVKASAEGQLGDTMQIVSLQLNKMKSRKSCGIAVGTTIVDADKYAVTVETRLIDERAAHVNAQFRF
B4: Chlamydia trachomatis Serovar E native major outer membrane protein (nMOMP), from CHO suspension cells (natural protein)
chain: LPVGNPAEPSLMIDGILWEGFGGDPCDPCTTWCDAISMRMGYYGDFVFDRVLKTDVNKEFQMGDKPTSTTGNATAPTTLTARENPAYGRHMQDAEMFTNAACMALNIWDRFDVFCTLGASSGYLKGNSASFNLVGLFGDNENQSTVKTNSVPNMSLDQSVVELYTDTAFSWSVGARAALWECGCATLGASFQYAQSKPKVEELNVLCNAAEFTINKPKGYVGQEFPLALIAGTDAATGTKDASIDYHEWQASLALSYRLNMFTPYIGVKWSRASFDADTIRIAQPKSATAIFDTTTLNPTIAGAGDVKASAEGQLGDTMQIVSLQLNKMKSRKSCGIAVGTTIVDADKYAVTVETRLIDERAAHVNAQFRF
B5: Chlamydia trachomatis Serovar D native major outer membrane protein (nMOMP), from adherent HeLa 229 cells (natural protein)
chain: LPVGNPAEPSLMIDGILWEGFGGDPCDPCATWCDAISMRVGYYGDFVFDRVLKTDVNKEFQMGAKPTTDTGNSAAPSTLTARENPAYGRHMQDAEMFTNAACMALNIWDRFDVFCTLGATSGYLKGNSASFNLVGLFGDNENQKTVKAESVPNMSFDQSVVELYTDTTFAWSVGARAALWECGCATLGASFQYAQSKPKVEELNVLCNAAEFTINKPKGYVGKEFPLDLTAGTDAATGTKDASIDYHEWQASLALSYRLNMFTPYIGVKWSRASFDADTIRIAQPKSATAIFDTTTLNPTIAGAGDVKTGAEGQLGDTMQIVSLQLNKMKSRKSCGIAVGTTIVDADKYAVTVETRLIDERAAHVNAQFRF
B6: Chlamydia trachomatis Serovar F native major outer membrane protein (nMOMP), from adherent HeLa 229 cells (natural protein)
chain: LPVGNPAEPSLMIDGILWEGFGGDPCDPCTTWCDAISMRMGYYGDFVFDRVLKTDVNKEFEMGEALAGASGNTTSTLSKLVERTNPAYGKHMQDAEMFTNAACMTLNIWDRFDVFCTLGATSGYLKGNSASFNLVGLFGDGVNATKPAADSIPNVQLNQSVVELYTDTTFAWSVGARAALWECGCATLGASFQYAQSKPKIEELNVLCNAAEFTINKPKGYVGKEFPLDLTAGTDAATGTKDASIDYHEWQASLSLSYRLNMFTPYIGVKWSRASFDSDTIRIAQPRLVTPVVDITTLNPTIAGCGSVAGANTEGQISDTMQIVSLQLNKMKSRKSCGIAVGTTIVDADKYAVTVETRLIDERAAHVNAQFRF

Target: the molecule itself
Assay: SEC-MALS

In order of falling “stoichiometry N” value:
1. B6  2.85
2. B5  2.8
3. B1  2.59
4. B2  2.52
5. B3  2.3
6. B4  2.27
